Test [1] has as its target microtubules (polymerized from unlabeled tubulin, Taxol-stabilised).
The target is the same in test [2]. The source holds these as a separate data set.

microtubules (polymerized from unlabeled tubulin, Taxol-stabilised), sequence (chain, as listed by the source, chain 1 of 2): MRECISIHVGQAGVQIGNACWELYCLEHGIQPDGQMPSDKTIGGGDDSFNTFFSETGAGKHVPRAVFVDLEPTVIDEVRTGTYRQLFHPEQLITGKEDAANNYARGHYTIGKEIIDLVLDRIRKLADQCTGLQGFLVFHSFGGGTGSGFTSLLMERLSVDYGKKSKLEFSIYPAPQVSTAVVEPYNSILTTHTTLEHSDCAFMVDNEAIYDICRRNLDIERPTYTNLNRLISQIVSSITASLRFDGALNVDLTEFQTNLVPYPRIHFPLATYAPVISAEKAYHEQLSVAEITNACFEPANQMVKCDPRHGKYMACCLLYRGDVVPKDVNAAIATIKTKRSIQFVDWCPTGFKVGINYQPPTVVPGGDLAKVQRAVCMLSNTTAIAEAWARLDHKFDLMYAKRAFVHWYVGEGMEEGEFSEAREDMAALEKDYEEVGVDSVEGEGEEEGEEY
microtubules (polymerized from unlabeled tubulin, Taxol-stabilised), sequence (chain, as listed by the source, chain 2 of 2): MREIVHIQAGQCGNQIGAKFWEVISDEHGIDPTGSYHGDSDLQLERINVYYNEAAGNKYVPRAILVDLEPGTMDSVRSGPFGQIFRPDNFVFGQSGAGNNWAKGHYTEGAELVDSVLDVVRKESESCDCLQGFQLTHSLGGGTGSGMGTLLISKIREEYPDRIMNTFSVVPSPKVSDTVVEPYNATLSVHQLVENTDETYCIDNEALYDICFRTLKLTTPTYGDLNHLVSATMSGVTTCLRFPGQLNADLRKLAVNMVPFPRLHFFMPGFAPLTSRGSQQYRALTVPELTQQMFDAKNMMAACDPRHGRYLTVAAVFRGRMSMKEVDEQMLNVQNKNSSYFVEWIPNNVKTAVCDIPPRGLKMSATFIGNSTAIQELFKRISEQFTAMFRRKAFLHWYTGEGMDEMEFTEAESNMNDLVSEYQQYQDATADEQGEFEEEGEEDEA

With “Saccharomyces cerevisiae cytoplasmic dynein (Dyn1) 1219-4093, monomeric construct, wild-type, P36022 1219-4092”, the microtubule-stimulated ATPase activity of monomeric dynein (second series, beside mutant 14): [MT] K M in test [1] is 0.42 µM. In test [2], this substance returned a microtubule-stimulated ATPase activity of monomeric dynein, 0–5 μM microtubules: K M for tubulin dimer of 0.5 µM.

The values are drawn from article PMC6600642.
